B1: 59-bp mismatched DNA (dsDNA)
DNA 1: CGCGGGTTTTCGCTATTTATGAAAATTTTCCGGTTTAAGGCGTTTCCGTTCTTCTTCGT
DNA 2: ACGAAGAAGAACGGAAACGCCTTAAACTGGAAAATTTTCATAAATAGCGAAAACCCGCG

Legend:
[1] = target: MutL(R-E) R162E;R266E;R316E (Escherichia coli) (UniProt P23367); experiment: smTIRF; details: 30 mM NaCl, 2 nM protein; single mismatch; smTIRF: 20 mM Tris-HCl pH 7.5, 0.1 mM DTT, 0.2 mg/mL acetylated BSA, 0.0025% P-20, 5 mM MgCl2, 100 mM NaCl (Buffer C), 1 mM ATP or AMP-PNP; NaCl varied …; scale: fold fewer binding events than wild-type MutL
[2] = test system: MutL(R266E) (Escherichia coli); experiment: smTIRF; details: 30 mM NaCl, 2 nM protein; single mismatch; smTIRF: 20 mM Tris-HCl pH 7.5, 0.1 mM DTT, 0.2 mg/mL acetylated BSA, 0.0025% P-20, 5 mM MgCl2, 100 mM NaCl (Buffer C), 1 mM ATP or AMP-PNP; NaCl varied …; scale: fold fewer binding events than wild-type MutL
MutL (Escherichia coli) = MutL (Escherichia coli) (UniProt P23367); experiment: smTIRF; details: ATP, no MutS, 10 mM NaCl, 10 nM MutL; single mismatch; smTIRF: 20 mM Tris-HCl pH 7.5, 0.1 mM DTT, 0.2 mg/mL acetylated BSA, 0.0025% P-20, 5 mM MgCl2, 100 mM NaCl (Buffer C), 1 mM ATP or AMP-PNP; NaCl varied …; scale: fraction of DNA molecules with MutL sliding clamp
[3] = target: MutS;MutL (Escherichia coli;Escherichia coli) (UniProt P23367); experiment: smTIRF; details: ATP, 10 nM MutL, single mismatch, smTIRF: 20 mM Tris-HCl pH 7.5, 0.1 mM DTT, 0.2 mg/mL acetylated BSA, 0.0025% P-20, 5 mM MgCl2, 100 mM NaCl (Buffer C), 1 mM ATP or AMP-PNP, NaCl varied …, scale: fraction of DNA molecules with MutL sliding clamp
MutS-bio;MutL = MutS-bio;MutL (Escherichia coli;Escherichia coli, UniProt P23909;P23367 1-853;1-615, |); experiment: smTIRF; ATP; immobilized MutS-bio, MutL co-localization lifetime 29 +/- 2 s; smTIRF: 20 mM Tris-HCl pH 7.5, 0.1 mM DTT, 0.2 mg/mL acetylated BSA, 0.0025% P-20, 5 mM MgCl2, 100 mM NaCl (Buffer C), 1 mM ATP or AMP-PNP; NaCl varied 10-100 mM; Mg2+ omitted for MutL-only binding per reviewer comment; temperature not given; details: protein: recombinant;recombinant; chain copies: 2;2; label: 5'-biotin on both strands; blunt, single G/T mismatch at position 32 of strand 1

Row | Molecule | binding signal [1] | binding signal [2] | binding signal (MutL (Escherichia coli)) | binding signal ([3]; loaded at 10 mM NaCl) | binding signal ([3]; loaded at 100 mM NaCl) | binding result (MutS-bio;MutL)
1 | 18.4-kb mismatched DNA | 30 | 3 | 0.25 | 0.567 | 0.073 | –
2 | B1 | – | – | – | – | – | binds
